Biological target: TMD-mRFP-RelA (UniProt Q04206 1-551)
Assay: co-translocation of a three-protein complex (RelA, IkB, p50) after 1 µM PMA, confocal microscopy, HEK293 cells

TMD-mRFP-RelA, sequence (Q04206 other isoform, or with tags, fused parts or gaps limits assumed): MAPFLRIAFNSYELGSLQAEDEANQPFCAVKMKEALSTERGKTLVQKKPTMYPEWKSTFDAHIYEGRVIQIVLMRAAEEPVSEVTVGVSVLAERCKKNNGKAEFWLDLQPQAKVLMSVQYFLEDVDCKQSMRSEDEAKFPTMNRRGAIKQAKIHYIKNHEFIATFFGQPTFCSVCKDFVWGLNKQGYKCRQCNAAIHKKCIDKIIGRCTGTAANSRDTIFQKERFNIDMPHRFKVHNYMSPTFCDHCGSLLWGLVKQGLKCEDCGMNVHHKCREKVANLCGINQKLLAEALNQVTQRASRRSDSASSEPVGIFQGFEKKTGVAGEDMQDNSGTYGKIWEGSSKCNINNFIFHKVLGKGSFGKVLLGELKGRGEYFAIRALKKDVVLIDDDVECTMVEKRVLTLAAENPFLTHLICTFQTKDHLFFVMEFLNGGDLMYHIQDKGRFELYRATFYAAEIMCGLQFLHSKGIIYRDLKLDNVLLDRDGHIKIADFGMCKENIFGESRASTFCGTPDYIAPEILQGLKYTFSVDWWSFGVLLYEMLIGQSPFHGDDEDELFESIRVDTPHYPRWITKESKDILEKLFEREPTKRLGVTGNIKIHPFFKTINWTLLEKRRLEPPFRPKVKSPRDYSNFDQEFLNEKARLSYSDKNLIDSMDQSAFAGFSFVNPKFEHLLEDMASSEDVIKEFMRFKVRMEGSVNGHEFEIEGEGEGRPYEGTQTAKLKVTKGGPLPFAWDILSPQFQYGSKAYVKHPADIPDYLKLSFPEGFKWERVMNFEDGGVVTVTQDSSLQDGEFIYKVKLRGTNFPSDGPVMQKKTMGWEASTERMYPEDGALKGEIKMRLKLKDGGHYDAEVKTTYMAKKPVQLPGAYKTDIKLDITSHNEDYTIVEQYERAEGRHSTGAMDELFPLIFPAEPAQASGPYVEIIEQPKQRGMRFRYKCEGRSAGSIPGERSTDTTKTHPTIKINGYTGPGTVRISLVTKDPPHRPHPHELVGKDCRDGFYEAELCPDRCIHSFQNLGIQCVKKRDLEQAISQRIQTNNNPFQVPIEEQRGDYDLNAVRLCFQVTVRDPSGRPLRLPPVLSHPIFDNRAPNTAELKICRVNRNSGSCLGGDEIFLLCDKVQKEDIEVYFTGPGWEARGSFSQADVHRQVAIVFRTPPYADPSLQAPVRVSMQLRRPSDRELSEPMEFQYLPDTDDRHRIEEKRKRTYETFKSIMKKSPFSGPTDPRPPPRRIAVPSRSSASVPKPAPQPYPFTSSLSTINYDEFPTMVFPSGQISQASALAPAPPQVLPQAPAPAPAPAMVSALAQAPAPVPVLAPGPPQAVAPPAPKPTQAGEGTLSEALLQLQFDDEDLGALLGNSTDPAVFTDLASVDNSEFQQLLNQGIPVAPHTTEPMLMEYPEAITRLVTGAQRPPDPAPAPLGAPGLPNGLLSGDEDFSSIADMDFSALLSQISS

B1: HcR-p50 (other)
chain: MVSGLLKESMRIKMYMEGTVNGHYFKCEGEGDGNPFAGTQSMRIHVTEGAPLPFAFDILAPCCEYGSRTFVHHTAEIPDFFKQSFPEGFTWERTTTYEDGGILTAHQDTSLEGNCLIYKVKVHGTNFPADGPVMKNKSGGWEPSTEVVYPENGVLCGRNVMALKVGDRHLICHHYTSYRSKKAVRALTMPGFHFTDIRLQMLRKKKDEYFELYEASVARYSDLPEKANMAEDDPYLGRPEQMFHLDPSLTHTIFNPEVFQPQMALPTDGPYLQILEQPKQRGFRFRYVCEGPSHGGLPGASSEKNKKSYPQVKICNYVGPAKVIVQLVTNGKNIHLHAHSLVGKHCEDGICTVTAGPKDMVVGFANLGILHVTKKKVFETLEARMTEACIRGYNPGLLVHPDLAYLQAEGGGDRQLGDREKELIRQAALQQTKEMDLSVVRLMFTAFLPDSTGSFTRRLEPVVSDAIYDSKAPNASNLKIVRMDRTAGCVTGGEEIYLLCDKVQKDDIQIRFYEEEENGGVWEGFGDFSPTDVHRQFAIVFKTPKYKDINITKPASVFVQLRRKSDLETSEPKPFLYYPEIKDKEEVQRKRQKLMPNFSDSFGGGSGAGAGGGGMFGSGGGGGGTGSTGPGYSFPHYGFPTYGGITFHPGTTKSNAGMKHG
notes: also called second construct 2
Question: Does B1 bind?
Answer: Result: binds

Reference: patent publication US20130130273A1 (KOREA BASIC SCIENCE INSTITUTE, published 2013)
